Data set [1] has as its system HeLa Kyoto. Description: solubility in G1/S (NP-40 vs SDS abundance) (log2 ratio); higher = more soluble. The settings on record: cell cycle stage: G1/S.
In data set [2] the test system is HeLa Kyoto. Nature of the data set: melting temperature (median over replicates), in situ; higher = more thermally stable.
Data set [3] has as its system HeLa Kyoto. Nature of the data set: thermal stability score vs G1/S (z-score of summed log2 fold changes over temperatures); higher = more thermally stable than in G1/S.
Data set [4] concerns HeLa Kyoto. Nature of the data set: solubility change mitosis vs G1/S (difference of NP-40 vs SDS log2 ratios) (log2 ratio difference); higher = more soluble in mitosis.
[5] abbreviates: cell cycle stage: early G1 (4.5 h after nocodazole release).
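Wherever melting temperature (median over replicates), in situ is given: HeLa Kyoto cells synchronized by double thymidine or nocodazole block, proteins quantified by TMT10plex mass spectrometry, three independent biological replicates.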
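Wherever solubility change mitosis vs G1/S (difference of NP-40 vs SDS log2 ratios) is given: synchronized HeLa Kyoto cells (double thymidine block for G1/S, nocodazole release for mitosis), protein amounts in NP-40 versus SDS lysates quantified by mass spectrometry, three biological replicates.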
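Wherever solubility in G1/S (NP-40 vs SDS abundance) is given: HeLa Kyoto cells arrested at G1/S by double thymidine block, proteins quantified by TMT10plex mass spectrometry in mild NP-40 versus SDS extracts, three biological replicates.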
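Wherever thermal stability score vs G1/S (z-score of summed log2 fold changes over temperatures) is given: synchronized HeLa Kyoto cells, proteins quantified by TMT10plex mass spectrometry, three biological replicates, mitosis taken 0.5 h after nocodazole release, G1/S directly after double thymidine block.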

“MEGGGGRDEPSACRAGDVNMDDPKKEDILLLADEKFDFDLSLSSSSANEDDEVFFGPFGHKERCIAASLELNNPVPEQPPLPTSESPFAWSPLAGEKFVEVYKEAHLLALHIESSSRNQAAQAAKPEDPRSQGVERFIQESKLKINLFEKEKEMKKSPTSLKRETYYLSDSPLLGPPVGEPRLLASSPALPSSGAQARLTRAPGPPHSAHALPRESCTAHAASQAATQRKPGTKLLLPRAASVRGRSIPGAAEKPKKEIPASPSRTKIPAEKESHRDVLPDKPAPGAVNVPAAGSHLGQGKRAIPVPNKLGLKKTLLKAPGSTSNLARKSSSGPVWSGASSACTSPAVGKAKSSEFASIPANSSRPLSNISKSGRMGPAMLRPALPAGPVGASSWQAKRVDVSELAAEQLTAPPSASPTQPQTPEGGGQWLNSSCAWSESSQLNKTRSIRRRDSCLNSKTKVMPTPTNQFKIPKFSIGDSPDSSTPKLSRAQRPQSCTSVGRVTVHSTPVRRSSGPAPQSLLSAWRVSALPTPASRRCSGLPPMTPKTMPRAVGSPLCVPARRRSSEPRKNSAMRTEPTRESNRKTDSRLVDVSPDRGSPPSRVPQALNFSPEESDSTFSKSTATEVAREEAKPGGDAAPSEALLVDIKLEPLAVTPDAASQPLIDLPLIDFCDTPEAHVAVGSESRPLIDLMTNTPDMNKNVAKPSPVVGQLIDLSSPLIQLSPEADKENVDSPLLKF [GTSE1]”: in the data set with HeLa Kyoto [1], the “solubility in G1/S (log2)” value stood at 0.351. For the same sequence, the melting temperature was determined as 49 °C with HeLa Kyoto [2] (cell cycle stage: G1/S) and 50.3 °C in the data set on HeLa Kyoto [2] (cell cycle stage: mitosis). Besides, the thermal stability score in the data set with HeLa Kyoto [3] (setting [5]) was 0.104; in the data set with HeLa Kyoto [3] (cell cycle stage: mitosis) it was -0.0609. In addition, the “solubility change mitosis (log2)” value in the data set on HeLa Kyoto [4] worked out at 0.505.

For the sequence “MEGGGGSGNKTTGGLAGFFGAGGAGYSHADLAGVPLTGMNPLSPYLNVDPRYLVQDTDEFILPTGANKTRGRFELAFFTIGGCCMTGAAFGAMNGLRLGLKETQNMAWSKPRNVQILNMVTRQGALWANTLGSLALLYSAFGVIIEKTRGAEDDLNTVAAGTMTGMLYKCTGGLRGIARGGLTGLTLTSLYALYNNWEHMKGSLLQQSL [TIMM23]”, the “solubility in G1/S (log2)” value in the data set with HeLa Kyoto [1] amounted to 0.455. The melting temperature with HeLa Kyoto [2] (cell cycle stage: G1/S) worked out at 57.3 °C; in the data set on HeLa Kyoto [2] (cell cycle stage: mitosis), 55.6 °C. Besides, the thermal stability score with HeLa Kyoto [3] (setting [5]) is -1.18; in the data set with HeLa Kyoto [3] (cell cycle stage: mitosis), -2.03. Further, the “solubility change mitosis (log2)” value with HeLa Kyoto [4] was -0.145.

Take “MEGGLGRAVCLLTGASRGFGRTLAPLLASLLSPGSVLVLSARNDEALRQLEAELGAERSGLRVVRVPADLGAEAGLQQLLGALRELPRPKGLQRLLLINNAGSLGDVSKGFVDLSDSTQVNNYWALNLTSMLCLTSSVLKAFPDSPGLNRTVVNISSLCALQPFKGWALYCAGKAARDMLFQVLALEEPNVRVLNYAPGPLDTDMQQLARETSVDPDMRKGLQELKAKGKLVDCKVSAQKLLSLLEKDEFKSGAHVDFYDK [SPR]”: in the data set on HeLa Kyoto [1], the “solubility in G1/S (log2)” value stood at 0.0864. In addition, the figures for the melting temperature in the data set on HeLa Kyoto [2] (cell cycle stage: G1/S) and with HeLa Kyoto [2] (cell cycle stage: mitosis) were 53.8 °C and 52.3 °C, respectively. Moreover, the thermal stability score is -5.72 with HeLa Kyoto [3] (setting [5]) and -2.25 in the data set on HeLa Kyoto [3] (cell cycle stage: mitosis). The “solubility change mitosis (log2)” value with HeLa Kyoto [4] is -0.117.

As for “MEGISNFKTPSKLSEKKKSVLCSTPTINIPASPFMQKLGFGTGVNVYLMKRSPRGLSHSPWAVKKINPICNDHYRSVYQKRLMDEAKILKSLHHPNIVGYRAFTEANDGSLCLAMEYGGEKSLNDLIEERYKASQDPFPAAIILKVALNMARGLKYLHQEKKLLHGDIKSSNVVIKGDFETIKICDVGVSLPLDENMTVTDPEACYIGTEPWKPKEAVEENGVITDKADIFAFGLTLWEMMTLSIPHINLSNDDDDEDKTFDESDFDDEAYYAALGTRPPINMEELDESYQKVIELFSVCTNEDPKDRPSAAHIVEALETDV [PBK]”, the “solubility in G1/S (log2)” value with HeLa Kyoto [1] was 0.0996. The melting temperature is 47.7 °C in the data set on HeLa Kyoto [2] (cell cycle stage: G1/S) and 47.6 °C with HeLa Kyoto [2] (cell cycle stage: mitosis). Also, the thermal stability score in the data set with HeLa Kyoto [3] (setting [5]) turned out to be 1.05; in the data set on HeLa Kyoto [3] (cell cycle stage: mitosis) it was 3.4. Also, the “solubility change mitosis (log2)” value in the data set on HeLa Kyoto [4] was 0.0797.

In the case of “MEGPGLGSQCRNHSHGPHPPGFGRYGICAHENKELANAREALPLIEDSSNCDIVKATQYGIFERCKELVEAGYDVRQPDKENVSLLHWAAINNRLDLVKFYISKGAVVDQLGGDLNSTPLHWAIRQGHLPMVILLLQHGADPTLIDGEGFSSIHLAVLFQHMPIIAYLISKGQSVNMTDVNGQTPLMLSAHKVIGPEPTGFLLKFNPSLNVVDKIHQNTPLHWAVAAGNVNAVDKLLEAGSSLDIQNVKGETPLDMALQNKNQLIIHMLKTEAKMRANQKFRLWRWLQKCELFLLLMLSVITMWAIGYILDFNSDSWLLKGCLLVTLFFLTSLFPRFLVGYKNLVYLPTAFLLSSVFWIFMTWFILFFPDLAGAPFYFSFIFSIVAFLYFFYKTWATDPGFTKASEEEKKVNIITLAETGSLDFRTFCTSCLIRKPLRSLHCHVCNCCVARYDQHCLWTGRCIGFGNHHYYIFFLFFLSMVCGWIIYGSFIYLSSHCATTFKEDGLWTYLNQIVACSPWVLYILMLATFHFSWSTFLLLNQLFQIAFLGLTSHERISLQKQSKHMKQTLSLRKTPYNLGFMQNLADFFQCGCFGLVKPCVVDWTSQYTMVFHPAREKVLRSV [ZDHHC13]”, the “solubility in G1/S (log2)” value in the data set on HeLa Kyoto [1] turned out to be 0.0826. The values for the melting temperature in the data set on HeLa Kyoto [2] (cell cycle stage: G1/S) and in the data set with HeLa Kyoto [2] (cell cycle stage: mitosis) were 51.6 °C and 51.4 °C, respectively. For the same sequence, the results for the thermal stability score with HeLa Kyoto [3] (setting [5]) and in the data set with HeLa Kyoto [3] (cell cycle stage: mitosis) were -0.948 and -1.02, respectively. Moreover, the “solubility change mitosis (log2)” value with HeLa Kyoto [4] was -0.158.
